Data taken from patent publication US5389611A, “Lactoferrin hydrolyzate for use as an antibacterial agent and as a tyrosinase inhibition agent” (priority 1990, dated 1995).

Assays:
Escherichia coli [1] = experiment: Antibacterial activity: proliferation inhibition of E. coli in liquid culture medium (Tests 1, 3, 6); type: cell-based
Procedure: From the stock culture of Escherichia coli, a loop of bacterial cells was taken out with a platinum loop and smeared onto a standard plate agar medium (by Nissui Seiyaku), followed by incubation at 35° C. for 16 hours under aerobic condition.
Basic culture medium (liquid culture medium) was prepared by dissolving bactocasitone (by Difco) into purified water in 1% concentration, adjusting the pH of the resultant solution to 7.0 with 1M sodium hydroxide, then sterilizing at 115° C. for 15 minutes.
The solutions of LF hydrolyzates previously prepared in item 1-1) were respectively filtered with membrane filters (by Advantech) to remove microorganisms which might be included therein. Different quantities of each of filtered solutions of LF hydrolyzates were respectively added to a portion of the basic culture medium to give 6 lots of test culture media containing LF hydrolyzate in different concentrations for each LF hydrolyzate having different decomposition rates as shown in Table 1. Control culture media containing unhydrolyzed LF in different concentrations were also prepared in the same manner as in the test culture media.
To each of the test and control culture media, the pre-culture was inoculated in 1% concentration, followed by incubation at 35° C. for 16 hours. The proliferation inhibition rate was determined by measuring the optical density of the culture broth in the same manner as previously described and calculating in accordance with the following formula:
proliferation inhibition rate (%)=100-(A/B×100)
(wherein A denotes the difference of optical densities of the test culture media before and after 16 hours incubation, B denotes the difference of optical densities of the control culture media before and after 16 hours incubation respectively) and
Antibacterial activity against E. coli of LF hydrolyzate having a 12% decomposition rate prepared in the same manner as in Example 2 (hydrolysis by citric acid) and that of unhydrolyzed LF were determined in the same manner as in Test 1.
Aqueous solutions of 10 kinds of LF hydrolyzate (prepared using different enzymes) and an aqueous solution of unhydrolyzed LF prepared in the same manner as in test 2 were filtered with membrane filters (by Advantec) to remove bacterial cells which might be contaminated therein. Each of the solutions was added to basic culture media (the same with that in Test 1) in different concentrations (50, 100, 250, 500, and 1000 ppm) to prepare test cultures and control cultures.
Antibacterial activity was tested for these cultures in the same manner as in test 1.

Escherichia coli [2] = experiment: Antibacterial activity against E. coli in the presence of iron (Test 8); type: cell-based; conditions: 0.01 mM of ferrous sulfate
viable bacterial count = experiment: Viable bacterial count of treated sliced vegetables (Test 4); conditions: dipped in 1% aqueous solution 30 seconds, preserved at 5° C.
Procedure: A quantity of sliced vegetables sold in the market was divided into three parts. […] Each of the treated samples was drained then preserved at 5° C. for observation. Viable bacterial count of the samples was periodically determined by the conventional method.

[3] = Preservation of cow's milk, change in appearance (Test 7); conditions: cow's milk at 25° C.
Procedure: The antibacterial activity of hydrolyzates of iron saturated LF was tested in the same manner as in test 5, except that hydrolyzates of iron saturated LF prepared in the same manner as in Example 5 and cow's milk sold in the market were used.
Each of three kinds of samples, to one of which is added hydrolyzate of Fe-LF, to another one of which is added unhydrolyzed LF and the third of which is added nothing, were respectively distributed into 3 test tubes (in total 9) and preserved at 25° C. for observation of any change in appearance.

[4] = preservation day 10, 3 test tubes
[5] = preservation day 14, 3 test tubes

Molecule | quantity added at which antibacterial activity was shown (Escherichia coli [1]; Table 1) | proliferation inhibition rate (Escherichia coli [1]; Table 1, concentration 1000 ppm) | proliferation inhibition rate (Escherichia coli [1]; Table 3, quantity added 25 ppm) [%] | proliferation inhibition rate (Escherichia coli [1]; Table 3, quantity added 50 ppm) [%] | proliferation inhibition rate (Escherichia coli [1]; Table 3, quantity added 100 ppm) [%] | proliferation inhibition rate (Escherichia coli [1]; Table 3, quantity added 250 ppm) [%] | proliferation inhibition rate (Escherichia coli [1]; Table 3, quantity added 500 ppm) [%] | proliferation inhibition rate (Escherichia coli [1]; Table 3, quantity added 1000 ppm) [%] | proliferation inhibition rate (Escherichia coli [1]; Table 5, quantity 250 ppm) | proliferation inhibition rate (Escherichia coli [1]; Table 5, quantity 1000 ppm) | antibacterial activity in the presence of ferrous sulfate, in words (Escherichia coli [2]) | viable bacterial counts (viable bacterial count; 0 hours) | viable bacterial counts (viable bacterial count; 12 hours) | viable bacterial counts (viable bacterial count; 24 hours) | viable bacterial counts (viable bacterial count; 36 hours) | change in appearance of milk [3, 4] | change in appearance of milk [3, 5] | change in appearance of milk ([3]; preservation day 0, 3 test tubes) | change in appearance of milk ([3]; preservation day 3, 3 test tubes) | change in appearance of milk ([3]; preservation day 7, 3 test tubes)
lactoferrin (protein, UniProt P24627 20-708, looked up, Native LF sold in the market (by Oleofina, Belgium), not hydrolyzed; control of Tests 1, 3-6, 8) Lactotransferrin: APRKNVRWCTISQPEWFKCRRWQWRMKKLGAPSITCVRRAFALECIRAIAEKKADAVTLDGGMVFEAGRDPYKLRPVAAEIYGTKESPQTHYYAVAVVKKGSNFQLDQLQGRKSCHTGLGRSAGWIIPMGILRPYLSWTESLEPLQGAVAKFFSASCVPCIDRQAYPNLCQLCKGEGENQCACSSREPYFGYSGAFKCLQDGAGDVAFVKETTVFENLPEKADRDQYELLCLNNSRAPVDAFKECHLAQVPSHAVVARSVDGKEDLIWKLLSKAQEKFGKNKSRSFQLFGSPPGQRDLLFKDSALGFLRIPSKVDSALYLGSRYLTTLKNLRETAEEVKARYTRVVWCAVGPEEQKKCQQWSQQSGQNVTCATASTTDDCIVLVLKGEADALNLDGGYIYTAGKCGLVPVLAENRKSSKHSSLDCVLRPTEGYLAVAVVKKANEGLTWNSLKDKKSCHTAVDRTAGWNIPMGLIVNQTGSCAFDEFFSQSCAPGADPKSRLCALCAGDDQGLDKCVPNSKEKYYGYTGAFRCLAEDVGDVAFVKNDTVWENTNGESTADWAKNLNREDFRLLCLDGTRKPVTEAQSCHLAVAPNHAVVSRSDRAAHVKQVLLHQQALFGKNGKNCPDKFCLFKSETKNLLFNDNTECLAKLGGRPTYEEYLGTEYVTAIANLKKCSTSPLLEACAFLTR | more than 250 ppm | complete inhibition could not be achieved | 0 | 0 | 5 | 16 | 74 | 85 | weak antibacterial activity | complete inhibition against proliferation of E. coli could not be achieved | deactivated | 5.1 × 10^3 per 1 g of sliced vegetables | 2.0 × 10^4 per 1 g of sliced vegetables | 1.8 × 10^5 per 1 g of sliced vegetables | 2.2 × 10^5 per 1 g of sliced vegetables | did not show any change in appearance | all of the samples showed coagulation | – | – | –
unhydrolyzed Fe-LF: Comparison sample of Test 7; table says unhydrolyzed Fe-LF ?, text says unhydrolyzed LF (protein, UniProt P24627 20-708, looked up, iron-saturated) Lactotransferrin: APRKNVRWCTISQPEWFKCRRWQWRMKKLGAPSITCVRRAFALECIRAIAEKKADAVTLDGGMVFEAGRDPYKLRPVAAEIYGTKESPQTHYYAVAVVKKGSNFQLDQLQGRKSCHTGLGRSAGWIIPMGILRPYLSWTESLEPLQGAVAKFFSASCVPCIDRQAYPNLCQLCKGEGENQCACSSREPYFGYSGAFKCLQDGAGDVAFVKETTVFENLPEKADRDQYELLCLNNSRAPVDAFKECHLAQVPSHAVVARSVDGKEDLIWKLLSKAQEKFGKNKSRSFQLFGSPPGQRDLLFKDSALGFLRIPSKVDSALYLGSRYLTTLKNLRETAEEVKARYTRVVWCAVGPEEQKKCQQWSQQSGQNVTCATASTTDDCIVLVLKGEADALNLDGGYIYTAGKCGLVPVLAENRKSSKHSSLDCVLRPTEGYLAVAVVKKANEGLTWNSLKDKKSCHTAVDRTAGWNIPMGLIVNQTGSCAFDEFFSQSCAPGADPKSRLCALCAGDDQGLDKCVPNSKEKYYGYTGAFRCLAEDVGDVAFVKNDTVWENTNGESTADWAKNLNREDFRLLCLDGTRKPVTEAQSCHLAVAPNHAVVSRSDRAAHVKQVLLHQQALFGKNGKNCPDKFCLFKSETKNLLFNDNTECLAKLGGRPTYEEYLGTEYVTAIANLKKCSTSPLLEACAFLTR | – | – | – | – | – | – | – | – | – | – | – | – | – | – | – | no change | coagulated | no change | no change | no change
